The record followed here is article PMC12115362.

Experiment in all cases: SEC; Agilent-1100, TSK G3000SWXL column; 0.2 M NaH2PO4, 0.1 M arginine, 1% IPA, pH 6.5; peaks integrated for approximate trimer percentage; N = 3
In general terms: Size exclusion chromatography separates by hydrodynamic size, large species first.

Assay [1] has as its target hMPV F pre-F benchmark D185P (subtype A2, CAN97-83 ectodomain with foldon) (human metapneumovirus, subtype A2, strain CAN97-83 | T4).
Assay [2] addresses hMPV F pre-F design K362F_G366F (subtype A2, CAN97-83 ectodomain with foldon) (human metapneumovirus, subtype A2, strain CAN97-83 | T4).
The target in assay [3] is hMPV F pre-F design N46V_T160F (subtype A2, CAN97-83 ectodomain with foldon) (human metapneumovirus, subtype A2, strain CAN97-83 | T4).

One may read the stoichiometry N as a count of units in the complex or per binding partner. For “hMPV F pre-F benchmark D185P (subtype A2, CAN97-83 ectodomain with foldon) (domain or fragment)”, in assay [1], the Trimer (%) is 97.1% and the stoichiometry N came to 3.
For “hMPV F pre-F design K362F_G366F (subtype A2, CAN97-83 ectodomain with foldon) (domain or fragment)”, in assay [2], the Trimer (%) was 76.9% and the stoichiometry N was 3.
In assay [3], “hMPV F pre-F design N46V_T160F (subtype A2, CAN97-83 ectodomain with foldon) (domain or fragment)” returned a Trimer (%) of 94.7% and a stoichiometry N of 3.
